Data published in paper doi:10.1101/2024.10.25.620210.

Biological target: α subunit of the Sinapis alba plastid-encoded RNA polymerase (SaPEP) (Sinapis alba) (UniProt Q9XQN8)
Experiment: cryo-EM structure

α subunit of the Sinapis alba plastid-encoded RNA polymerase (SaPEP) (from UniProt Q9XQN8 1-327) (natural protein)
stoichiometry N: 2
